Measured values taken from US20170146535A1 (SPRING BIOSCIENCE, published 2017).
Substitutions are numbered along the chain they refer to.

B1: J6H15L16 antibody (antibody, V domains shown)
VH: QEQLVESGGGLVQPEGSLTLTCTASGFSFSTNYWICWVRQAPGKGLEWTACIYIGGRGSIYYASWAKGRFTISKTSSTTVTLQMTSLTAADTATYFCARDLTTAYGATDLRFWGPGTLVTVSS
VL: DVVMTQTPSPVSAAVGGTVSISCQSSQSVGDNNRLSWFQQKPGQPPKLLIYSASTLASGVPSRFKGSGSGTEYTLTISGVQCDDAATYYCLGEFSGSDEDVFGGGTEVVVK
notes: the constant regions are not
B2: J6H12L16 antibody (antibody, V domains shown)
VH: B1 VH with Q13R
VL: B1 VL
notes: the constant regions are not
B3: J6H20L16 antibody (antibody, V domains shown)
VH: B1 VH with F96S
VL: B1 VL
notes: the constant regions are not
B4: anti-IDO1 antibody SP260 (antibody, V domains shown)
VH: B1 VH with I54V
VL: B1 VL
notes: the constant regions are not

Target: human indoleamine 2,3-dioxygenase 1 (IDO1) (human, UniProt P14902 1-403)
Sequence (P14902 whole entry): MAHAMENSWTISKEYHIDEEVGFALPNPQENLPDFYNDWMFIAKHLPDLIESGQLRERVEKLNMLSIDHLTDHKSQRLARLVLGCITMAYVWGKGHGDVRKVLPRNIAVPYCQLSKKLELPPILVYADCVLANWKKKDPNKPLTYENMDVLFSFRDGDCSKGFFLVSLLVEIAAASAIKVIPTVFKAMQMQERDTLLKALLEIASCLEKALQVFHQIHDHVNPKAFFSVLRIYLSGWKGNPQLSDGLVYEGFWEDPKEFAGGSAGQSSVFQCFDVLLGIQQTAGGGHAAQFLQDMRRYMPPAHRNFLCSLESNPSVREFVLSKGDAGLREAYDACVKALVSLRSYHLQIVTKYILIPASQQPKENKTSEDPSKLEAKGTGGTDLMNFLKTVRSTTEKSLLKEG
Assay: IHC on FFPE HeLa cells (untreated or IFN-gamma treated) and FFPE human tissues
Protocol: The anti-IDO1 antibodies generated in Example 1 were used in further IHC analyses. For IHC analyses, tissue sections were incubated with the antibodies for 16 min followed by standard washes and secondary detection with Optiview DAB IHC Detection Kit (Ventana Medical System, Inc., Tucson, Ariz.). The specificity of each antibody was assessed on formalin-fixed, paraffin-embedded (FFPE) cells with different IDO1 expression levels (human cervical cancer HeLa cells that are either untreated as control (negative) or treated with interferon-γ (high expression); see FIGS. 2A-2b) or from different tissue types (Tonsil, Thymus, Colon, Endometrial adenocarcinoma, Ovarian adenocarcinoma, Pancreatic adenocarcinoma, and Stomach adenocarcinoma; see FIGS. 3A-3G).

Binder | binding result
B1 | binds
B2 | binds
B3 | binds
B4 | binds
